According to article PMC4688242 (Neurobiology of disease, 2015):

B1: ADan pE (34-amino acid ADan amyloid peptide with N-terminal pyroglutamate) (peptide)
peptide: EASNCFAIRHFENKFAVETLICFNLFLNSQEKHY
modifications: N-terminal pyroglutamate (pE) in place of Glu1
B2: ADan E (34-amino acid ADan amyloid peptide with N-terminal glutamate) (peptide)
peptide: EASNCFAIRHFENKFAVETLICFNLFLNSQEKHY

Target: the molecule itself
Test: SDS-PAGE and Western blot of SDS-resistant oligomers

Protein	binding result
B1	binds
B2	binds
